This is an account of results in the supplement of paper PMC12764529.

Data set [1] in a line: folding stability dG unfold (combined trypsin and chymotrypsin); higher = more stable. In a few lines:
(§1)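 Digests were run with trypsin and chymotrypsin at 11 concentrations in threefold dilutions, plus a no-protease condition, on designed mini-proteins in a PA-tagged cDNA display construct. The mini-proteins were under 80 residues, had no cysteine, and were kept only when AlphaFold2 dimer inter-PAE was above 15. After sequencing, Bayesian fitting of the counts gave K50, from which unfolding free energy was derived against a sequence-predicted unfolded-state K50 and a shared folded-state K50, per protease or combined.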

The nature of data set [2]: folding stability dG unfold from chymotrypsin proteolysis; higher = more stable. The essentials:
as §1

The nature of data set [3]: folding stability dG unfold from trypsin proteolysis; higher = more stable. In a few lines:
as §1

± gives the half width of the 95% confidence interval.

Consider “SAGGSAGGSEKPPVKTITLVLKVDDAEEAAKALAEELGVEITRIEVTRDENGKVYVRITIRLPSAGGSAGGS [r12_359_TrROS_Hall]”, for which the “folding stability dG unfold” value in data set [1] was determined as 3.9 ± 0.14 kcal/mol; in data set [2] it was 3.99 ± 0.099 kcal/mol; in data set [3] it was 3.6 ± 0.1 kcal/mol.
On to “SAGGSAGGSEKVEIEREFKLPDPNGKPFRFTVEIEVEPRNDGLKIEITEVEGPWMRDAIKKLLSAGGSAGGS [r12_743_TrROS]”, for which the “folding stability dG unfold” value in data set [1] worked out at 0.907 ± 0.2 kcal/mol; in data set [2], 0.922 ± 0.24 kcal/mol; in data set [3] it was 0.696 ± 0.14 kcal/mol.
Turning to “SAGGSAGGSEKVIVVPSEEALKALEDAGIEVKKIEVFTETVTYYYPPGFPPVTETRTYLLVEVSAGGSAGGS [r12_78_TrROS_Hall]”, the “folding stability dG unfold” value was determined as 1.96 ± 0.083 kcal/mol in data set [1], 2.26 ± 0.072 kcal/mol in data set [2] and 1.45 ± 0.056 kcal/mol in data set [3].
Consider “SAGGSAGGSELEKALASAKPGEEVTVTVESTTPDGTPSVEIVEVKVEAETPSPGKENLEKNRLVSAGGSAGG [r6_893_JUSTAS]”, for which the “folding stability dG unfold” value was -0.112 ± 0.44 kcal/mol in data set [1], 0.0837 ± 0.065 kcal/mol in data set [2] and -0.602 ± 0.23 kcal/mol in data set [3].
Regarding “SAGGSAGGSELPEGVEVETEPIAEIEITDEDGRKYKISIEAVKIRGPDGKEFLVISVSIEELPSAGGSAGGS [r12_544_TrROS_Hall]”, the entries for the “folding stability dG unfold” value in data set [1], in data set [2] and in data set [3] were 3.81 ± 0.62 kcal/mol, 4.16 ± 0.34 kcal/mol and 3.25 ± 0.56 kcal/mol, respectively.
As for “SAGGSAGGSELPVESIETETYEDPSTGVKTVREKYPGGYVVTKTLYVPPDGPPIELPVEVRPESAGGSAGGS [r12_111_JUSTAS]”, the “folding stability dG unfold” value in data set [1] was 0.425 ± 0.23 kcal/mol; in data set [2], 0.63 ± 0.083 kcal/mol; in data set [3], -0.0484 ± 0.17 kcal/mol.
Regarding “SAGGSAGGSELSDEEIEALRKPPKVRIRVEIVYPDGTVEEREFSSLEEALAAAKERNVTVKILSAGGSAGGS [r12_244_TrROS_Hall]”, the “folding stability dG unfold” value in data set [1] came out at 2.28 ± 0.089 kcal/mol; in data set [2], 1.76 ± 0.058 kcal/mol; in data set [3] it was 2.86 ± 0.12 kcal/mol.
In the case of “SAGGSAGGSEMEVKVTVEPAPAGAPPGAVVRVEVEFEDGFRITVRFTFVDGKLRAEVTEIKPVSAGGSAGGS [r12_1049_TrROS_Hall]”, the entries for the “folding stability dG unfold” value in data set [1], in data set [2] and in data set [3] were 3.37 ± 0.1 kcal/mol, 3.65 ± 0.061 kcal/mol and 2.92 ± 0.085 kcal/mol, respectively.
For “SAGGSAGGSEPEEPEYILIERVEAGEKPKITITFKDGTKKEIEVKPGETILIKVPKDAKIEVESAGGSAGGS [r12_553_TrROS_Hall]”, the “folding stability dG unfold” value in data set [1] came out at 0.94 ± 0.2 kcal/mol; in data set [2], 1.1 ± 0.13 kcal/mol; in data set [3], 0.983 ± 0.067 kcal/mol.
In the same order, the values of “SAGGSAGGSETRVLVRPLDGAIVIEAYRRLPDGSWVLAERIVIPTKGDDPESIARAQEVIDKLSAGGSAGGS [r12_169_TrMRF]” are 4.38 ± 0.078 kcal/mol, 4.67 ± 0.087 kcal/mol and 3.76 ± 0.059 kcal/mol.
Turning to “SAGGSAGGSETVTLTLVVDSPEEAKALIDALKKAGIKEVTLEEKDGKLVLTITMSKEELEKLKSAGGSAGGS [r12_846_TrROS_Hall]”, the “folding stability dG unfold” value in data set [1] was found to be 3.41 ± 0.2 kcal/mol; in data set [2], 3.8 ± 0.13 kcal/mol; in data set [3], 2.31 ± 0.23 kcal/mol.
For the sequence “SAGGSAGGSETVVIKIEVSPEELEKLKEALEEAGYEVEIRVERDENGKLTVTVTIRLPPGVKPSAGGSAGGS [r12_653_TrROS_Hall]”, the “folding stability dG unfold” value in data set [1] was found to be 2.86 ± 0.086 kcal/mol; in data set [2], 2.57 ± 0.069 kcal/mol; in data set [3] it was 3.18 ± 0.17 kcal/mol.
On to “SAGGSAGGSEVKTITLTIKNKETNKEIKIEVQVFKNEDGELVFIAKAEITYNGKKYTFTVLLPSAGGSAGGS [r12_619_TrROS_Hall]”, for which the “folding stability dG unfold” value in data set [1] was determined as 4.43 ± 0.31 kcal/mol; in data set [2], 4.38 ± 0.16 kcal/mol; in data set [3], 3.82 ± 0.27 kcal/mol.
The matching figures for “SAGGSAGGSEVKVLVYPPKGPPRLFADDVPIETLVAQFTAEDPPEPLVLVTKEEAEKLGFPLESAGGSAGGS [r12_379_TrMRF]”: 0.27 ± 0.22 kcal/mol, 0.15 ± 0.14 kcal/mol and 0.435 ± 0.047 kcal/mol.
In the case of “SAGGSAGGSEVLEVVLPRPDGRLVLLRVDPEGRLALVVFPDGSVRVFEVESPEEAVQRVLDAESAGGSAGGS [r12_866_TrMRF]”, the “folding stability dG unfold” value was found to be 2.41 ± 0.07 kcal/mol in data set [1], 2.6 ± 0.034 kcal/mol in data set [2] and 1.92 ± 0.054 kcal/mol in data set [3].
“SAGGSAGGSEWTIESIRPRPDGSLIARVRPEGVNVSVEVEFDTLEELLAFAKLLEELGGKVTGSAGGSAGGS [r20_177_TrMRF]”: the figures for the “folding stability dG unfold” value in data set [1], in data set [2] and in data set [3] were 1.82 ± 0.058 kcal/mol, 1.98 ± 0.023 kcal/mol and 1.62 ± 0.04 kcal/mol, respectively.
For the sequence “SAGGSAGGSEWYEIRIPGIKGSADDLVEDIQDWFPAPNMKISIEEVEPMGDGLPGMTIKLRVNSAGGSAGGS [r12_348_TrROS]”, the “folding stability dG unfold” value in data set [1] was found to be 0.381 ± 0.054 kcal/mol; in data set [2], 0.361 ± 0.11 kcal/mol; in data set [3], 0.227 ± 0.033 kcal/mol.
In the same order, the values of “SAGGSAGGSEYRIELELFRTPEGGLVVPVRIYPPDGGRFEGPASLEELVERFGFSFPPLLELLSAGGSAGGS [r20_235_TrMRF]” are 2.15 ± 0.092 kcal/mol, 2.54 ± 0.12 kcal/mol and 1.58 ± 0.035 kcal/mol.
As for “SAGGSAGGSFEILEVHPVKDGWLMIVVRTPGKMKVITIPPDDLDEIPGLDDIAIFPVKDGEPISAGGSAGGS [r12_343_TrROS]”, the “folding stability dG unfold” value is 1.38 ± 0.21 kcal/mol in data set [1], 1.65 ± 0.12 kcal/mol in data set [2] and 1.28 ± 0.049 kcal/mol in data set [3].
Consider “SAGGSAGGSFKDVPPGLKPLREEENVLFYQLPDGSYLVLVKEGDKIKKIKASKSTSIEEAIKKSAGGSAGGS [r12_605_JUSTAS]”, for which the figures for the “folding stability dG unfold” value in data set [1], in data set [2] and in data set [3] were 1.61 ± 0.16 kcal/mol, 2.09 ± 0.041 kcal/mol and 0.44 ± 0.11 kcal/mol, respectively.
In the same order, the values of “SAGGSAGGSFPLDEIRKFAKKLGNPFIEIEPVKPHVYRIKIYNKKNGKKKEFPIYLDEDGKIMSAGGSAGGS [r12_170_TrROS]” are 1.16 ± 0.13 kcal/mol, 1.27 ± 0.15 kcal/mol and 0.992 ± 0.053 kcal/mol.
Turning to “SAGGSAGGSFRIPKGDPNMKIRIIFQWPNGQPMPMEYTVTPDGTFKINIPGMPPNRIESIEIWSAGGSAGGS [r12_477_TrROS]”, the “folding stability dG unfold” value came to 1.95 ± 0.21 kcal/mol in data set [1], 1.68 ± 0.26 kcal/mol in data set [2] and 1.98 ± 0.17 kcal/mol in data set [3].
Turning to “SAGGSAGGSGGMTPTSRDYVLPNGEKLAVEETFTFPDGSSVTKVLDPKTGTTTTLPASTIASASAGGSAGGS [r12_488_JUSTAS]”, the “folding stability dG unfold” value turned out to be 0.394 ± 0.11 kcal/mol in data set [1], 0.321 ± 0.13 kcal/mol in data set [2] and 0.451 ± 0.032 kcal/mol in data set [3].
Take “SAGGSAGGSGGVIDIPVYGEDGEKFIASAPKEVIEKAIKEGKPIEVYVVDDGKIIKKFTISTGSAGGSAGGS [r12_991_TrMRF]”: the “folding stability dG unfold” value is 0.0354 ± 0.12 kcal/mol in data set [1], -0.0658 ± 0.17 kcal/mol in data set [2] and -0.0801 ± 0.092 kcal/mol in data set [3].
For the sequence “SAGGSAGGSGKPLLLVRLKIRNKETGEEETVVLEADSLDEALARLPPGAEIVSIEVVRLDLPPSAGGSAGGS [r12_208_TrROS_Hall]”, the “folding stability dG unfold” value in data set [1] came out at 5.34 ± 0.13 kcal/mol; in data set [2], 5.38 ± 0.075 kcal/mol; in data set [3], 4.34 ± 0.16 kcal/mol.
Consider “SAGGSAGGSGKVLVLPLPGGTVEEVKEIAKEIKEKYPNAKVTTEVFPTPEGDLVAVVTLENPESAGGSAGGS [r12_425_TrMRF]”, for which the figures for the “folding stability dG unfold” value in data set [1], in data set [2] and in data set [3] were 0.0277 ± 0.22 kcal/mol, -0.0724 ± 0.087 kcal/mol and 0.307 ± 0.11 kcal/mol, respectively.
